Experimental data published in article PMC4673825, “Active site coupling in Plasmodium falciparum GMP synthetase is triggered by domain rotation” (Nature Communications, 2015).
Where a chain is given by its changes, count along the chain named.

Legend:
PfATPPase = biological target: T1, PfATPPase (Plasmodium falciparum, UniProt Q8IJR9); assay: ammonia-dependent GMP formation, absorbance decrease at […] nm; details: NH4Cl-dependent, 20 mM MgCl2, pH 8.5, 25 °C
T1 construct: gene GMPS
T1 sequence (Q8IJR9 237-555): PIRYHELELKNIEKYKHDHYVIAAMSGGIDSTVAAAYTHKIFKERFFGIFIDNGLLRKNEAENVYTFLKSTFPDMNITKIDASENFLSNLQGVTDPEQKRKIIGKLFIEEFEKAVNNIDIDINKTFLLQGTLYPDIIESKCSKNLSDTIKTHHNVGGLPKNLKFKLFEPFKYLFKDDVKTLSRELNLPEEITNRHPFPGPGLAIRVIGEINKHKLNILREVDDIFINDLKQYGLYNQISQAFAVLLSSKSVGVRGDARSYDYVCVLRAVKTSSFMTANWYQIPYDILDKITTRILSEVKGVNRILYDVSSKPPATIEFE

N = assay: purified protein; details: 2 mM ATP, 150 μM XMP, 20 mM MgCl2, pH 8.5, 25 °C
[1] = system: O=c1[nH]c(=O)c2ncn([C@@H]3O[C@H](COP(=O)(O)O)[C@@H](O)[C@H]3O)c2[nH]1; assay: purified protein; assay type: biochemical, Plasmodium falciparum; details: 2 mM ATP, 5 mM Gln, 20 mM MgCl2, pH 8.5, 25 °C, Gln-dependent
purified protein [2] = substrate: N; assay: purified protein; details: 20 mM MgCl2, pH 8.5, 25 °C
purified protein [3] = substrate: O=c1[nH]c(=O)c2ncn([C@@H]3O[C@H](COP(=O)(O)O)[C@@H](O)[C@H]3O)c2[nH]1; assay: purified protein; details: NH4Cl-dependent, 20 mM MgCl2, pH 8.5, 25 °C
[4] = biological target: the molecule itself; assay: SEC; analytical gel filtration, Superdex 200 HR 10/30, 50 mM Tris-HCl pH 7.4, 100 mM KCl; 100 μl of 20 μM protein, each injected individually
[5] = biological target: the molecule itself; assay: SAXS; in solution, 1.1-11 mg/ml in 20 mM Tris pH 7.4, 50 mM NaCl; data at 11 mg/ml analysed; ab initio envelope superimposed on the dimer crystal structure
SAXS = biological target: the molecule itself; assay: SAXS

`Nc1ncnc2c1ncn2[C@@H]1O[C@H](COP(=O)(O)OP(=O)(O)OP(=O)(O)O)[C@@H](O)[C@H]1O` [ATP] gave a Km (PfATPPase) of 56 ± 16 µM.

In the case of PfGMPS (Plasmodium falciparum 3D7), the Km (N) is reported as 19 ± 1 mM, the kcat (N) is reported as 0.917 s⁻¹ and the kcat/Km (N) is reported as 48.3 M⁻¹ s⁻¹. For the same molecule, the Km [1] was 10 ± 2 µM, the kcat [1] was 0.733 ± 0.0167 s⁻¹ and the kcat/Km [1] was 73300 M⁻¹ s⁻¹.

B1: PfATPPase (isolated ATP pyrophosphatase domain of PfGMPS) (domain or fragment, Plasmodium falciparum, UniProt Q8IJR9 237-555, looked up)
chain: T1 sequence (Q8IJR9 237-555)
notes: ATPPase domain of Plasmodium falciparum GMP synthetase, residues 237-555; Cloned into pET-21b(+); also called ATPPase domain; source: E. coli BL21(DE3) (pETPfATPPase), purified (60% ammonium sulfate precipitation, CM-Sepharose cation exchange)
For B1, the Km (purified protein [2]) was 7.0 ± 0.3 mM, the kcat (purified protein [2]) was 9.3 ± 0.1 min⁻¹ and the Km (purified protein [3]) was 11 ± 4 µM. The “stoichiometry N” value [4] was 2.

B2: Plasmodium falciparum GMP synthetase (PfGMPS), wild type (enzyme, UniProt Q8IJR9 1-555, looked up)
chain: MEGEEYDKILVLNFGSQYFHLIVKRLNNIKIFSETKDYGVELKDIKDMNIKGVILSGGPYSVTEAGSPHLKKEVFEYFLEKKIPIFGICYGMQEIAVQMNGEVKKSKTSEYGCTDVNILRNDNINNITYCRNFGDSSSAMDLYSNYKLMNETCCLFENIKSDITTVWMNHNDEVTKIPENFYLVSSSENCLICSIYNKEYNIYGVQYHPEVYESLDGELMFYNFAYNICKCKKQFDPIRYHELELKNIEKYKHDHYVIAAMSGGIDSTVAAAYTHKIFKERFFGIFIDNGLLRKNEAENVYTFLKSTFPDMNITKIDASENFLSNLQGVTDPEQKRKIIGKLFIEEFEKAVNNIDIDINKTFLLQGTLYPDIIESKCSKNLSDTIKTHHNVGGLPKNLKFKLFEPFKYLFKDDVKTLSRELNLPEEITNRHPFPGPGLAIRVIGEINKHKLNILREVDDIFINDLKQYGLYNQISQAFAVLLSSKSVGVRGDARSYDYVCVLRAVKTSSFMTANWYQIPYDILDKITTRILSEVKGVNRILYDVSSKPPATIEFE
notes: GMP synthetase of Plasmodium falciparum, EC 6.3.5.2, full-length enzyme of 555 residues: GATase domain 1-236 and ATPPase domain 237-555; also called guanosine 5'-monophosphate synthetase; ligand-free PfGMPS; source: E. coli AT2465 (pQE30PfGMPS), purified (HisTrap, Superdex 200 size exclusion)
In the case of B2, the “stoichiometry N” value [5] is reported as 2.

B3: PfGMPS_C89A (glutamine-bound inactive mutant of P. falciparum GMP synthetase) (enzyme)
chain: B2 chain with C89A
In the case of B3, the “stoichiometry N” value (SAXS) is reported as 2.
